Target: gp120 (strain not stated)
Assay: competitive ELISA

Substance “CD4M8 (double mutant of CD4M3: Gln20Ala, Thr25Ala) (designed binder)” has a fold increase in binding affinity over CD4M3 greater than 10 fold.
